Measured values taken from article PMC2747018.

Biological target: U1-A protein of the native human U1 snRNP (human (endogenous in HeLa)) (UniProt P09012)
Experiment: native MS; nano ESI-MS of the intact U1 snRNP purified from HeLa cells, 200 mM ammonium acetate, Q-ToF2, collision cell 100 V; the complex holds U1 snRNA

UniProt P09012, sequence (P09012 whole entry): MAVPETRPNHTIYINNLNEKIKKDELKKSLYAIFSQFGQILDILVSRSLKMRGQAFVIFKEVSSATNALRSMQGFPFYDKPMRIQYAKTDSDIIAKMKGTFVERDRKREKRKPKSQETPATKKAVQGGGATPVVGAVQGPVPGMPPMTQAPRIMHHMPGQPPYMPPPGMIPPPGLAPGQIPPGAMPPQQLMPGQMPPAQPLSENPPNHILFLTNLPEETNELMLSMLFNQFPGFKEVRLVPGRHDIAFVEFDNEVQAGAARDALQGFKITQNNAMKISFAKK

stoichiometry N	Substance
1	Sm-D1 (from UniProt P62314 1-119) (natural protein; other documents disagree on this pair)
1	Sm-F (from UniProt P62306 1-86) (natural protein; other documents disagree on this pair)
